Experimental data reported in patent US20120121504A1 (UNITED STATES OF AMERICA AS REPRESENTED BY THE SECRETARY …, published 2012).
Ends that are not written are not given here.

Columns and labels:
[1] = target: T1, human CD52 (human, UniProt P31358 25-36, ends and bridges not checked); experiment: flow cytometry, MFI ratio grade (sample over background), allogeneic B cells
T1 construct: whole, on cells; also called CD52 antigen
T1 chain (looked up): GQNDTSQTSSPS

[2] = target: T1, human CD52; experiment: flow cytometry, MFI ratio grade (sample over background), third party B cells

B1: alemtuzumab (humanized anti-human CD52 mAb with human IgG1 kappa constant domains) (antibody, V domains shown)
VH: QVQLQESGPGLVRPSQTLSLTCTVSGFTFTDFYMNWVRQPPGRGLEWIGFIRDKAKGYTTEYNPSVKGRVTMLVDTSKNQFSLRLSSVTAADTAVYYCAREGHTAAPFDYWGQGSLVTVSS
VL: DIQMTQSPSSLSASVGDRVTITCKASQNIDKYLNWYQQKPGKAPKLLIYNTNNLQTGVPSRFSGSGSGTDFTFTISSLQPEDIATYYCLQHISRPRTFGQGTKVEIKR
[1]
  MFI ratio (sample over background): > 100 ratio
[2]
  MFI ratio (sample over background): > 100 ratio
